Columns and labels:
[1] = target: T1, mouse thrombin with His tag (mouse, UniProt P19221 325-618, limits assumed); assay: binding ELISA
T1 construct: also called m-thrombin-His; murine thrombin

[2] = target: T2, human thrombin with His tag (human, UniProt P00734 328-622); assay: binding ELISA
[3] = target: T3, human prothrombin with His tag (human, UniProt P00734 44-622); assay: binding ELISA
T3 construct: also called h-prothrombin-his

[4] = target: T2, human thrombin with His tag; assay: BIAcore
[5] = target: T3, human prothrombin with His tag; assay: BIAcore
[6] = target: T2, human thrombin with His tag; assay: binding ELISA, biotinylated His-tagged human thrombin on streptavidin plate
Excerpt: The binding ability of anti-thrombin antibody was detected by ELISA assay with the antibodies and the human thrombin with His tag. Thrombin protein with His tag labeled with the biotin-labeling kit (Dongren Chemicals, Cat No. LK03) was immobilized into a 96-well microtiter plate by binding to streptavidin coated on the microtiter plate, the strength of the signal after the addition of the antibody was used to determine the binding activity of the antibody to thrombin. The specific experimental method is as follows.
Streptavidin (Sigma, Cat No. S4762-5MG) was diluted to a concentration of 5 μg/ml with PBS buffer, pH 7.4 (Sigma, Cat No. P4417-100TAB) and added to a 96-well plate at a volume of 50 μl/well, and then, the plate was incubated in the incubator at 37° C. for 2 hours. After discarding the liquid, the plates were blocked with 200 μl/well of blocking solution containing 5% skim milk (Guangming skim milk) in PBS, and incubated in the incubator at 37° C. for 2.5 hours or overnight at 4° C. (16-18 hours). After blocking, the blocking solution was discarded and the plate was washed 5 times with PB ST buffer (PBS containing 0.05% tweeen-20, pH7.4). Human thrombin protein with His tag labeled with the biotin-labeling (SEQ ID NO: 2, as shown by the double underline) was diluted with sample dilution (PBS containing 1% BSA, PH7.4) to 50 μg/ml and was added to each well, 50 μl/well. Then the plate was incubated in the incubator at 37° C. for 2 h or overnight. After incubation, the blocking solution in the plate was discarded, and the plate was washed with PBST 6 times, and then 50 μl/well of various concentrations of the test antibodies diluted with sample dilution was added to each well, and the plate was incubated at 37° C. for 2 h. The plates were washed 5 times with PBST after incubation, and 100 μl/well of goat anti-human secondary antibody (Jackson Immuno Research, Cat No. 109-035-003) labeled with HRP was added to each well, diluted in sample dilution, and the plate was incubated at 37° C. for 1 h. After washing the plates 5 times with PBST, 50 μl/well of TMB chromogenic substrate (KPL, Cat No. 52-00-03) was added to each well, and incubated at room temperature for 10-15 min. The reaction was stopped by the addition of 50 μl/well 1M H₂SO₄ to each well.

[7] = target: T2, human thrombin with His tag; assay: Biacore
[8] = target: T3, human prothrombin with His tag; assay: Biacore
[9] = target: T2, human thrombin with His tag; assay: Biacore; reference h1601-008
[10] = target: T3, human prothrombin with His tag; assay: Biacore; reference h1601-008
[11] = target: T2, human thrombin with His tag; assay: Biacore; ratio of KD on pro-thrombin to KD on thrombin
[12] = target: T2, human thrombin with His tag; assay: BIAcore, antibody captured by anti-human antibody
[13] = target: T3, human prothrombin with His tag; assay: BIAcore, antibody captured by anti-human antibody
[14] = target: T2, human thrombin with His tag; assay: biacore; selectivity thrombin over pro-thrombin, reference h1601-008

Binder | EC50 [6] [nM] | Kd [7] [nM] | Kd [8] [nM] | Fold of Affinity relative to h1601-008 [9] [fold] | Fold of Affinity relative to h1601-008 [10] [fold] | Selective activity [11] | other results
chimeric antibody CH-1601 (antibody, human IgG4 S228P, kappa, V domains shown) VH: EVKLVESEGGLVQPGSSLKLSCTASGFTFSDYYMAWVRQVPEKGLEWVANINSDGSSTYYLDSLKSRFIISRDNAKNILYLQMSSLKSEDTATYYCARDHYHGNSYVFDYWGQGTTLTVSS VL: DIQMTQSSSSFSVSRGNRVTITCKASEDIYNRLAWYQQKPGNAPRLIISGATSLETGVPSRFSGSGSGKDYTLSITSLQTEDVGTYYCQQYWSTPWTFGGGTKLEIKR | – | – | – | – | – | – | binding result [1]: no binding; EC50 [2]: 0.71 nM; EC50 [3]: 42.6 nM; Kd [4]: 2.27 nM; Kd [5]: 78.7 nM
humanized antibody h1601-005 (antibody, human IgG4 S228P, kappa, V domains shown) VH: EVQLVESGGGLVQPGGSLRLSCAASGFTFSDYYMAWVRQAPGKGLEWVSNINSDGSSTYYLDSLKSRFTISRDNSKNTLYLQMNSLKAEDTAVYYCARDHYHGNSYVFDYWGQGTTVTVSS VL: DIQMTQSPSSLSASVGDRVTITCKASEDIYNRLAWYQQKPGKAPKLLISGATSLETGVPSRFSGSGSGKDFTLTISSLQPEDFATYYCQQYWSTPWTFGGGTKVEIKR | 5.8 | – | – | – | – | – | –
aTM-2 (antibody, V domains shown) VH: EVQLVESGGGLVQPGGSLRLSCAASGFTFSDYYMAWVRQAPGKGLEWVSNINSDGSSTYYLDSLKSRFTISRDNSKNTLYLQMNSLKAEDTAVYYCARDHYLGNSYVFDSWGQGTTVTVSS VL: DIQMTQSPSSLSASVGDRVTITCKASEDIYNRLAWYQQKPGKAPRLIISGATSLETGVPSRFSGSGSGKDYTLTISSLQPEDFATYYCQQYWSTPWTFGGGTKVEIK | – | 0.0899 | 1.23 | 86.5 | 62.4 | 13.7 | –
humanized antibody h1601-008 (antibody, human IgG4 S228P, kappa, V domains shown) VH: EVQLVESGGGLVQPGGSLRLSCAASGFTFSDYYMAWVRQAPGKGLEWVSNINSDGSSTYYLDSLKSRFTISRDNSKNTLYLQMNSLKAEDTAVYYCARDHYHGNSYVFDYWGQGTTVTVSS VL: DIQMTQSPSSLSASVGDRVTITCKASEDIYNRLAWYQQKPGKAPRLIISGATSLETGVPSRFSGSGSGKDYTLTISSLQPEDFATYYCQQYWSTPWTFGGGTKVEIKR | 1.54 | 7.78 | 76.8 | 1 | 1 | 9.9 | Kd [12]: 8.97 nM; Kd [13]: 94.3 nM
aTM-1 (antibody, V domains shown) VH: EVQLVESGGGLVQPGGSLRLSCAASGFTFSDYYMAWVRQAPGKGLEWVSNINSDGSSTYYLDSLKSRFTISRDNSKNTLYLQMNSLKAEDTAVYYCARDHYIGASYVFDYWGQGTTVTVSS VL: DIQMTQSPSSLSASVGDRVTITCKASEDIYNRLAWYQQKPGKAPRLIISGATSLETGVPSRFSGSGSGKDYTLTISSLQPEDFATYYCQQYWSTPWTFGGGTKVEIK | – | 0.191 | 3.48 | 40.7 | 22.1 | 18.2 | fold increase of selectivity (against h1601-008) [14]: 1.8 times
aTM-7 (antibody, V domains shown) VH: EVQLVESGGGLVQPGGSLRLSCAASGFTFSDYYMAWVRQAPGKGLEWVSNINSDGSSTYYLDSLKSRFTISRDNSKNTLYLQMNSLKAEDTAVYYCARDHYMGNSYVFDTWGQGTTVTVSS VL: DIQMTQSPSSLSASVGDRVTITCKASEDIYNRLAWYQQKPGKAPRLIISGATSLETGVPSRFSGSGSGKDYTLTISSLQPEDFATYYCQQYWSTPWTFGGGTKVEIK | – | 0.172 | 2.05 | 45.2 | 37.5 | 11.9 | –
aTM-4 (antibody, V domains shown) VH: EVQLVESGGGLVQPGGSLRLSCAASGFTFSDYYMAWVRQAPGKGLEWVSNINSDGSSTYYLDSLKSRFTISRDNSKNTLYLQMNSLKAEDTAVYYCARDHYLGNSYVFDLWGQGTTVTVSS VL: DIQMTQSPSSLSASVGDRVTITCKASEDIYNRLAWYQQKPGKAPRLIISGATSLETGVPSRFSGSGSGKDYTLTISSLQPEDFATYYCQQYWSTPWTFGGGTKVEIK | – | 0.144 | 2.62 | 54 | 29.3 | 18.2 | –
humanized antibody h1601-009 (antibody, human IgG4 S228P, kappa, V domains shown) VH: EVKLVESGGGLVQPGGSLRLSCAASGFTFSDYYMAWVRQAPGKGLEWVANINSDGSSTYYLDSLKSRFTISRDNSKNTLYLQMNSLKAEDTAVYYCARDHYHGNSYVFDYWGQGTTVTVSS VL: DIQMTQSPSSLSASVGDRVTITCKASEDIYNRLAWYQQKPGKAPRLIISGATSLETGVPSRFSGSGSGKDYTLTISSLQPEDFATYYCQQYWSTPWTFGGGTKVEIKR | 1.49 | – | – | – | – | – | Kd [12]: 8.17 nM
humanized antibody h1601-006 (antibody, human IgG4 S228P, kappa, V domains shown) VH: EVKLVESGGGLVQPGGSLRLSCAASGFTFSDYYMAWVRQAPGKGLEWVANINSDGSSTYYLDSLKSRFTISRDNSKNTLYLQMNSLKAEDTAVYYCARDHYHGNSYVFDYWGQGTTVTVSS VL: DIQMTQSPSSLSASVGDRVTITCKASEDIYNRLAWYQQKPGKAPKLLISGATSLETGVPSRFSGSGSGKDFTLTISSLQPEDFATYYCQQYWSTPWTFGGGTKVEIKR | 4.45 | – | – | – | – | – | –

Source: patent US20190315886A1 (JIANGSU HENGRUI MEDICINE, published 2019)
